# Data as given in paper PMC4837482, “The complex binding mode of the peptide hormone H2 relaxin to its receptor RXFP1” (Nature Communications, 2016).
# Residue numbers refer to the chain shown, from its start.
# Key:
# Assay in all cases: cAMP activity assay (pCRE β-galactosidase reporter), transfected HEK293T cells
# Format in all cases: cell-based
# [1] = target: T1, RXFP1 G41A (Homo sapiens, UniProt Q9HBX9, G63A); conditions: construct G41A, ±s.e.m.
# T1 construct: transiently transfected human embryonic kidney (HEK) 293T cells expressing full-length RXFP1 and mutants; expressed in transfected cells; host or cells: HEK293T
# T1 sequence (Q9HBX9 23-757 G63A limits assumed): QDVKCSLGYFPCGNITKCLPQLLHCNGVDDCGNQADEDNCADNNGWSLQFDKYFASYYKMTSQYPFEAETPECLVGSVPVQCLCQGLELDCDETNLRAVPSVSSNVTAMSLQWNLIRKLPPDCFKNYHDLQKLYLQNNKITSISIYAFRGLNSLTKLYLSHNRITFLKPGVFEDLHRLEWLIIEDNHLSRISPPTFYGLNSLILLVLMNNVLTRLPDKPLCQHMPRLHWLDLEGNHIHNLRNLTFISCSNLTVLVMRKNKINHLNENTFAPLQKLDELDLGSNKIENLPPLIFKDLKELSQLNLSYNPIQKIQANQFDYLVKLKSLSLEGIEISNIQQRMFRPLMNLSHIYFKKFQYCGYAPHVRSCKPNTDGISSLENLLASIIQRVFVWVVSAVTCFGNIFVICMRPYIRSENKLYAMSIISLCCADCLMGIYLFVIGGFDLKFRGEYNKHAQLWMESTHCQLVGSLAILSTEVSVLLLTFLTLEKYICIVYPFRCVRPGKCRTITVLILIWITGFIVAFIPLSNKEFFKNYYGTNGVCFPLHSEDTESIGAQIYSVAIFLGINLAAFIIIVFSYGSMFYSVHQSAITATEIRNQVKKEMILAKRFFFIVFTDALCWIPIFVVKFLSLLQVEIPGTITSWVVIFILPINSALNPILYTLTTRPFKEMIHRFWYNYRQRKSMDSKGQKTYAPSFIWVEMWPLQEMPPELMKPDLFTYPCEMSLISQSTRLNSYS
# Summary of the method: (§1)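 H2 relaxin dilutions in minimal media with 1% DMSO; 5 μM Forskolin as positive control, media/1% DMSO as negative. After freezing at −80 °C, cells lysed in pH 8.0 phosphate buffers and chlorophenol red-β-D-galactopyranoside added; absorbance read at 570 nm. Responses given as % of 5 μM Forskolin maximum.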
# [2] = target: T2, RXFP1 E67A (Homo sapiens, UniProt Q9HBX9, E89A); conditions: construct E67A, ±s.e.m.
# T2 construct: cells expressing full-length RXFP1 and mutants; expressed in transfected cells; host or cells: HEK293T
# T2 sequence (Q9HBX9 23-757 E89A limits assumed): T1 sequence (Q9HBX9 23-757 G63A limits assumed) with A41G, E67A
# Summary of the method: as §1
# [3] = target: T3, RXFP1 G41D42-AA (Homo sapiens, UniProt Q9HBX9, D64A/G63A)
# T3 construct: transiently transfected human embryonic kidney (HEK) 293T cells expressing full-length RXFP1 and mutants; expressed in transfected cells; host or cells: HEK293T
# T3 sequence (Q9HBX9 23-757 G63A/D64A limits assumed): T1 sequence (Q9HBX9 23-757 G63A limits assumed) with D42A
# Summary of the method: as §1
# [4] = percentage of maximum response to 5 μM Forskolin
substance,measurement,setting,value
H2 relaxin: two-chain 6-kDa peptide hormone structurally related to insulin; recombinant human gene-2 H2 relaxin provided by Corthera,H2 relaxin pEC50,[1]; cAMP reporter,11.13±0.1 (3)
same,H2 relaxin Emax,[1]; [4],104.7±1.65 (3) %
same,H2 relaxin pEC50,[2]; cAMP reporter,11.13±0.13
same,H2 relaxin Emax,[2]; [4],141.74±27.08 (5) %
same,loss of H2 relaxin-stimulated cAMP activity,[3]; G41A/D42A RXFP1 versus wild-type RXFP1,"5,000 fold"
same,H2 relaxin Emax,"[3]; construct G41D42-AA, percentage of maximum response to 5 μM Forskolin, ±s.e.m.",106.8±46.67 (3) %
